# T1: OX40 on activated CD4 T-cells
# T1 construct: also called OX40+ CD4 T-cells
# T1 chain: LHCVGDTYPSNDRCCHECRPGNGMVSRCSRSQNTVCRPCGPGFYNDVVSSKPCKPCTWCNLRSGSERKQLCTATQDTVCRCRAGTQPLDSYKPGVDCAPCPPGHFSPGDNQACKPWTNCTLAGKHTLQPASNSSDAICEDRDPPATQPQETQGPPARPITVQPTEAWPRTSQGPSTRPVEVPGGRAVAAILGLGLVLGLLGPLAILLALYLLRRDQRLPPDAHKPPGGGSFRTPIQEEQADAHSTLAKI
# T2: TIGIT on activated CD8 T-cells (human, UniProt Q495A1)
# T2 sequence (receptor chain, looked up): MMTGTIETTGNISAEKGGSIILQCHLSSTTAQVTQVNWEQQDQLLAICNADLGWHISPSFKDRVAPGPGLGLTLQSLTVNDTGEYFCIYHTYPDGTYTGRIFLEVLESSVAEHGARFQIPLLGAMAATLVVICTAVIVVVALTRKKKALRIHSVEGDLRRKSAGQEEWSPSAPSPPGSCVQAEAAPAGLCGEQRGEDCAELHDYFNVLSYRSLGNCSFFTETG
# T3: TIGIT on activated CD4 T-cells
# T3 chain: T2 sequence (receptor chain, looked up)
# B1: ADT1-4-2 (antibody, IgG1, V domains shown)
# VH: EVQLQQSGPGLVKPSQTLSLTCAISGDSVSSKSAAWNWIRQSPSRGLEWLGRTYYRSKWSTDYAASVKSRITINPDTSKNQLSLQLNSVTPEDTAVYYCARTWVGYVDRWGQGTLVTVSS
# VL: DIQMTQSPPALSASVGDRVTITCRASQDINDWLAWYQHKPGKAPKLLIYDASSLESGVPLRFSGSGSGTEFTLTISSLQPDDFATYYCQQKYSAPQVTFGQGTRLEIK
# notes: IgG1
# Key:
# [1] = target: T4, Her2 on Her2+ breast cancer cells (SK-BR-3, BT-474) (human, UniProt P04626 23-1255); assay: flow cytometry on SK-BR-3 cells, anti-human IgG secondary antibody
# T4 construct: whole, on cells; also called ErbB-2; CD340
# [2] = target: T5, L1 (DV1-GV4), soluble human Vδ1/Vγ4 γδ TCR heterodimer in leucine zipper format (human); assay: SPR (Reichert 4SPR), antibody on Protein A chip, Vδ1 heterodimer at 6.25-100 nM as analyte
# T5 construct: Biotinylated in the DELFIA ranking; also called Antigen L1 (TRDV1/TRGV4); human DV1-GV4; not shown: gamma chain: Vγ4 (TRGV4) domain on a TCR constant region, leucine zipper, histidine tag
# T5 sequence (main, as listed by the source): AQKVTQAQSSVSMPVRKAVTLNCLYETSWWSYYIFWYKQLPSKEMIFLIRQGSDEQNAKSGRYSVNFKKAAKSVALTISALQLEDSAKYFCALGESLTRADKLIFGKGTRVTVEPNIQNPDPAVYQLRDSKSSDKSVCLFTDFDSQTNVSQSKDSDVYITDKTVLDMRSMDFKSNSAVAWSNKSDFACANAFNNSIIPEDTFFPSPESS
# [3] = target: T6, Cyno DV1/GV77 antigen, recombinant cynomolgus Vδ1 heterodimer (cynomolgus monkey); assay: as above
# T6 construct: also called cyno TRDV1; Cyno DV1-77; not shown: delta CDR3/J, TCR constant region, zipper and tag; the whole gamma chain GV77
# T6 sequence (delta, as listed by the source limits assumed): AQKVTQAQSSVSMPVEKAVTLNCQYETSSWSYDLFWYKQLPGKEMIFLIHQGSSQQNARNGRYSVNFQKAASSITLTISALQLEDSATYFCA
# [4] = target: T1, OX40 on activated CD4 T-cells; assay: flow cytometry on anti-CD3/anti-CD28-activated CD4 T-cells, anti-human IgG secondary antibody, % cells bound IgG
# Protocol: Initially CD4+ T-cells were negatively selected by magnetic sorting from PBMC buffy coats extracted from whole blood. Following activation by anti-CD3/anti-CD28 antibodies conjugated to Dynabeads (Invitrogen), cell surface expression of OX40 was elevated on CD4 T-cells. […] After washing, cells were incubated for a further 15 minutes with anti-human IgG secondary antibodies before washing and fixing. The amount of antibody bound to each cell type was determined by flow cytometry.
# [5] = target: T5, L1 (DV1-GV4), soluble human Vδ1/Vγ4 γδ …; assay: SPR (Reichert 4SPR), antibody on Protein A chip, antigen flown over
# Protocol: Recombinant human Vδ1 heterodimer or human TIGIT was flown over the cell at a top concentration of 100 nM.
# [6] = target: Vδ1 chain of the γδ TCR on human Vδ1 γδ T cells (human); assay: cell-based or functional assay
# [7] = target: T7, Vδ1 chain of the γδ TCR on human Vδ1 γδ T cells (human); assay: flow cytometry on Vδ1 γδ T-cells, anti-human IgG secondary antibody, % cells bound IgG
# T7 construct: whole, on cells; also called cell surface Vδ1 TCR; Vδ1-positive γδ T cells
# T7 sequence (A0A1B0GX56 22-115, stated change not applied): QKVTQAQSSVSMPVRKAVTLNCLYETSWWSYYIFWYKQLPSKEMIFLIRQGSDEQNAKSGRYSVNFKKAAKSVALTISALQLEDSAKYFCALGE
# [8] = target: T8, Recombinant human MSLN (human, UniProt Q13421 296-580, limits assumed); assay: SPR, Reichert 4SPR; antibody captured on Protein A chip, human MSLN flown over
# T8 construct: also called mesothelin
# T8 sequence (Q13421 other isoform, or with tags, fused parts or gaps limits assumed): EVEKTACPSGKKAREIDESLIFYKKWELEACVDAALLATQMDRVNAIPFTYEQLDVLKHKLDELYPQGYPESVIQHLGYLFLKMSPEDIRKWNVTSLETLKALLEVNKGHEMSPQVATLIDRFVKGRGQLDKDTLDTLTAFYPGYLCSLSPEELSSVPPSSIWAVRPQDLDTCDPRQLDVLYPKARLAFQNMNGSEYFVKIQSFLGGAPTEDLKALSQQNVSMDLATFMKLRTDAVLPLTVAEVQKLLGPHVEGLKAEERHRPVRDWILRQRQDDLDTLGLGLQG
# Protocol: Recombinant human Vδ1 heterodimer or human MSLN was flown over the cell at a top concentration of 100 nM with the following parameters: 180 s association, 480 s dissociation, flowrate 25 μL/min, running buffer PBS+0.05% Tween 20. All experiments were performed at room temperature.
# [9] = target: T9, Recombinant human 4-1BB (human, UniProt Q07011 24-186); assay: SPR, Reichert 4SPR; antibody captured on Protein A chip, human 4-1BB flown over
# T9 construct: also called CD137
# T9 sequence (Q07011 24-186 limits assumed): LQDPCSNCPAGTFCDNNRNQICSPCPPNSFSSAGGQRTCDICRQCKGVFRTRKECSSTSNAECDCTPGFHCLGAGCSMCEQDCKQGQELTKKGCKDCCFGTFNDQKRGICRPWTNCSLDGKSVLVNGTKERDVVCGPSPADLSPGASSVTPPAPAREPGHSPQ
# Protocol: (§1) Recombinant human Vδ1 heterodimer or human 4-1BB was flown over the cell at a top concentration of 100 nM.
# [10] = target: T2, TIGIT on activated CD8 T-cells; assay: flow cytometry, anti-human IgG secondary antibody, activated CD8 T-cells
# Protocol: Initially CD4 and CD8 T-cells were negatively selected by magnetic sorting from PBMC buffy coats extracted from whole blood. […] After washing, cells were incubated for a further 15 minutes with anti-human IgG secondary antibodies before washing and fixing. The amount of antibody bound to each cell type was determined by flow cytometry.
# [11] = target: T5, L1 (DV1-GV4), soluble human Vδ1/Vγ4 γδ …; assay: SPR (Reichert 4SPR), antibody on Protein A chip, antigen flown over; remark: listed apart in the source
# Protocol: Recombinant human Vδ1 heterodimer or human PD-1 was flown over the cell at a top concentration of 100 nM.
# [12] = target: T7, Vδ1 chain of the γδ TCR on human Vδ1 γδ …; assay: flow cytometry on Vδ1 γδ T-cells, anti-human IgG secondary antibody, % cells bound IgG; remark: listed apart in the source
# [13] = target: T7, Vδ1 chain of the γδ TCR on human Vδ1 γδ …; assay: cell-based or functional assay; remark: listed apart in the source
# [14] = target: T10, FAPα on FAPα+ fibroblasts (human, UniProt Q12884 1-760); assay: flow cytometry on BJ fibroblasts, anti-human Fc secondary antibody, % IgG bound cells
# T10 construct: whole, on cells; also called FAPα+ target cells (BJ fibroblasts, human dermal fibroblasts)
# Protocol: After washing, cells were incubated for a further 15 minutes with anti-human Fc secondary antibodies before washing and fixing. The amount of antibody bound to each cell type was determined by flow cytometry.
# [15] = target: PD-1 on activated CD4 and CD8 T-cells; assay: flow cytometry on anti-CD3/anti-CD28-activated CD4 and CD8 T-cells, anti-human IgG secondary antibody, % cells bound IgG
# Chain of PD-1 on activated CD4 and CD8 T-cells (chain, as listed by the source limits assumed): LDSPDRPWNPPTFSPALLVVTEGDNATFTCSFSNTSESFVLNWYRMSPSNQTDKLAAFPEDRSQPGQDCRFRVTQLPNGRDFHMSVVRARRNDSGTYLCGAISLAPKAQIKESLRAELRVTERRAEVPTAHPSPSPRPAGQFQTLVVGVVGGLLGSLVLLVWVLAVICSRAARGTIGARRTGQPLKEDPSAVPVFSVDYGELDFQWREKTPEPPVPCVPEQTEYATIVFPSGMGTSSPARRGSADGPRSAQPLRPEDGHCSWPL
# [16] = target: T5, L1 (DV1-GV4), soluble human Vδ1/Vγ4 γδ …; assay: SPR (Reichert 4SPR), antibody on Protein A chip, antigen flown over; remark: listed apart in the source
# Protocol: as §1
# [17] = target: T7, Vδ1 chain of the γδ TCR on human Vδ1 γδ …; assay: cell-based or functional assay; remark: listed apart in the source
# [18] = target: T11, 4-1BB on activated CD8 T-cells (human, UniProt Q07011); assay: flow cytometry on anti-CD3/anti-CD28-activated CD8 T-cells, anti-human IgG secondary antibody, % cells bound IgG
# T11 construct: also called 4-1BB+ CD8 T-cells
# T11 sequence (Q07011 24-255 limits assumed): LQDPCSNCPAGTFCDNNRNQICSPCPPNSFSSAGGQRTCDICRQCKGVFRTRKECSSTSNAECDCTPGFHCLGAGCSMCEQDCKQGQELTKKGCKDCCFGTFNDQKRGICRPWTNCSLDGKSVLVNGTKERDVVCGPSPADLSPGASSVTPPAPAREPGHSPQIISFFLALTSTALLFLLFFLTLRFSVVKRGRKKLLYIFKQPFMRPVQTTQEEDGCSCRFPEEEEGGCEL
# [19] = target: Recombinant human FAPα (human, UniProt Q12884 26-760); assay: SPR, Reichert 4SPR; antibody captured on Protein A chip, human FAPα flown over
# Protocol: Recombinant human Vδ1 heterodimer or human FAPα was flown over the cell at a concentration of 100 nM with the following parameters: 180 s association, 480 s dissociation, flowrate 25 μL/min, running buffer PBS+0.05% Tween 20. All experiments were performed at room temperature.
# [20] = target: T7, Vδ1 chain of the γδ TCR on human Vδ1 γδ …; assay: flow cytometry on Vδ1 γδ T-cells, anti-human IgG secondary antibody
# Protocol: (§2) After washing, cells were incubated for a further 15 minutes with anti-human IgG secondary antibodies before washing and fixing. The amount of antibody bound to each cell type was determined by flow cytometry.
# [21] = target: T3, TIGIT on activated CD4 T-cells; assay: flow cytometry, anti-human IgG secondary antibody, activated CD4 T-cells
# [22] = target: T7, Vδ1 chain of the γδ TCR on human Vδ1 γδ …; assay: flow cytometry on Vδ1 γδ T-cells, anti-human IgG secondary antibody, % cells bound IgG; remark: listed apart in the source
# Protocol: as §2
binder,measurement,setting,value
B1,binding result,[1],no binding (tested: about 300 nM)
same,Kd,[2],0.34 nM
same,Kd,[3],2.6 nM
same,binding result,[4],no binding (tested: 200 nM)
same,Kd,[5],0.29 nM
same,"IC50 (read off the curve), Vδ1 TCR downregulation, γδ T-cells alone",[6],~0.1 nM
same,EC50 (read off the curve),[7],~0.2 nM
same,binding result,[8],no binding
same,binding result,[9],no binding
same,binding result,[10],no binding (tested: 200 nM)
same,Kd,[11],0.29 nM
same,EC50 (read off the curve),[12],~0.2 nM
same,"IC50 (read off the curve), Vδ1 TCR downregulation, γδ T-cells with FAPα+ fibroblasts",[13],~2 nM
same,binding result,[14],no binding (tested: about 70 nM)
same,binding result,[15],no binding (tested: 200 nM)
same,Kd,[16],1.25 nM
same,"IC50 (read off the curve), Vδ1 TCR downregulation, γδ T-cells with activated OX40+ CD4 T-cells",[17],~0.1 nM
same,binding result,[18],no binding (tested: 200 nM)
same,binding result,[19],no binding
same,EC50 (read off the curve),[20],~5 nM
same,binding result,[21],no binding (tested: 200 nM)
same,EC50 (read off the curve),[22],~0.2 nM
